Laboratory results as given in patent publication US20230165981A1, “[161Tb]-BASED RADIOPEPTIDES” (priority 2021, published 2023).
Values joined by “and” are separate entries in the source; they are usually repeats but may differ in a detail not shown here. Equal entries are not always repeated. Where two headings read alike, the source gives them in different places. Starred links: 1 amine or outer side, 2 acyl side, 3 side chain; linkers in the order of their positions; H or OH if unused. Positions of bridges follow the written chain, without caps; N, C: chain ends. Non-standard residues stand in square brackets, D forms with d. Residues, ends and D or L forms follow the SMILES beside them. *: point of attachment. DOTA = O=C(O)CN1CCN(CC(=O)O)CCN(CC(=O)*)CCN(CC(=O)O)CC1; X1 = NC(=O)Nc1ccc(CC(N[*:1])C(=O)[*:2])cc1; Phe(4-Cl) = N[CH](Cc1ccc(Cl)cc1)C(=O)O

Legend:
[1] = Assessment of early side effects in therapy mice; details: endpoint of therapy
Method: Early side effects were assessed based on the RBW of each mouse which was monitored every second day. When an endpoint was reached or at the end of the study (after 49 days), relevant organs and tissues were collected, weighed and put into relation to the brain mass and body weight of the respective mouse. This allowed comparison of organ-to-brain and organ-to-body mass weight ratios. In addition, blood plasma parameters from blood collected immediately after euthanasia were measured.
RBW, organ mass and mass ratios at the endpoint: The RBW was monitored every second day. Mice were euthanized when a predefined endpoint criterion was reached or when the study was terminated at Day 49. RBWs, organ masses, organ mass ratios (kidney-to-brain, liver-to-brain and spleen-to-brain) and organ mass to body weight ratios (kidney-to-body mass, liver-to-body mass and spleen-to-body mass) were analyzed for significance using a one-way ANOVA test with a Tukey’s multiple comparisons post-test. A p-value of <0.05 was considered as statistically significant.
Blood plasma chemistry: Immediately before euthanasia of the mice that reached the endpoint, blood was sampled from the retrobulbar vein. The values of creatinine (CRE), blood urea nitrogen (BUN), alkaline phosphatase (ALP), total bilirubin (TBIL) and albumin (ALB) were determined in the plasma after centrifugation of the blood using a dry chemistry analyzer (DRI-CHEM 4000i, FUJIFILM, Japan). The average blood plasma parameters of each group were analyzed for significance using a one-way ANOVA test with a Tukey’s multiple comparisons post-test. A p-value of <0.05 was considered as statistically significant.

[2] = n-octanol/PBS distribution coefficient (logD), shake-flask method; type: physicochemical; details: n-octanol/PBS pH 7.4
Method: An aliquot of the radiolabeled peptide (0.5 MBq, 25 µL) was added to a mixture of 1475 µL PBS pH 7.4 and 1500 µL n-octanol. The respective tubes were vortexed for 60 sec and centrifuged for 6 min at 2500 rpm followed by the measurement of the activity concentration in a defined volume of each layer using a γ-counter (Perkin Elmer, Wallac Wizard 1480). The logD values were calculated as the logarithm of the ratio of counts per minute (cpm) measured in the n-octanol phase relative to the cpm measured in the PBS pH 7.4 phase. The experiments were performed three times with five replicates for each radiopeptide and the logD value was expressed as the average ± standard deviation (SD) of the values obtained in each experiment. […] A p value <0.05 was considered statistically significant.

[3] = tested on: AR42J tumor-bearing mice; assay: Biodistribution: optimum injected molar amount; details: 2 h p.i.
[4] = tested on: metastatic functional neuroendocrine neoplasm of the pancreatic tail; assay: First-in-man scintigraphy and SPECT/CT; type: in vivo, human; details: 0.5-113 hours p.i., patient
Method: A patient with a metastatic functional neuroendocrine neoplasm of the pancreatic tail was injected with 161TbDOTATOC. Scintigraphy and SPECT were recorded. […] FIGS. 18A, 18B, 18C, and 18D show whole-body images obtained at 0.5 hours post-injection (p.i.) (FIG. 18A), 2.5 hours p.i. (FIG. 18B), 20 hours p.i. (FIG. 18C), and 113 hours p.i. (FIG. 18D) of 161Tb-DOTATOC. Early blood-pool activity was noticed in the heart (H) and blood vessels (BV).
FIGS. 19A, 19B, and 19C show SPECT/CT images obtained at 19 hours after injection of 161Tb-DOTATOC. (FIG. 19A) Coronal section, (FIG. 19B) sagittal section, and (FIG. 19C) transverse section.

[5] = tested on: AR42J tumor-bearing mice; details: 0.2 nmol/mouse
Method: All applicable international, national, and/or institutional guidelines for the care and use of animals were followed. In particular, all animal experiments were carried out according to the guidelines of Swiss Regulations for Animal Welfare. The preclinical studies were ethically approved by the Cantonal Committee of Animal Experimentation and permitted by the responsible cantonal authorities (license N° 75721 and 79692). Five-week-old female, athymic nude mice (CD-1 Foxn-⅟nu) were obtained from Charles River Laboratories (Sulzfeld, Germany). Mice were subcutaneously inoculated with AR42J tumor cells (5 × 10^6 cells in 100 µL PBS) for SPECT/CT imaging, biodistribution and therapy studies. The SPECT/CT and biodistribution studies were performed 10-14 days after tumor cell inoculation when the tumor size reached a volume of ~250 mm^3.
The mice were sacrificed at 0.5 h, 2 h, 4 h, 24 h and 48 h p.i, selected tissues and organs were collected, weighed, and the accumulated activity was counted using a γ-counter (Perkin Elmer). The decay-corrected data were listed as % IA/g. The data were analyzed for significance using a two-way ANOVA with Tukey’s multiple comparison post-tests. A p-value of <0.05 was considered statistically significant.

[6] = tested on: AR42J tumors; assay: Preclinical therapy study in AR42J tumor-bearing mice; type: in vivo
[7] = tested on: AR42J tumor-bearing mice; details: 24 h p.i., 1 nmol/mouse
Method: (§1) Five-week-old female, athymic nude mice (CD-1 Foxn-⅟nu) were obtained from Charles River Laboratories (Sulzfeld, Germany). Mice were subcutaneously inoculated with AR42J tumor cells (5 × 10^6 cells in 100 µL PBS) for SPECT/CT imaging, biodistribution and therapy studies. The SPECT/CT and biodistribution studies were performed 10-14 days after tumor cell inoculation when the tumor size reached a volume of ~250 mm^3.
(§2) The mice were sacrificed at 2 h and 24 h post injection (p.i.). Selected tissues and organs were collected, weighed, and the accumulated activity was counted in a γ-counter. The decay-corrected data were listed as the percentage of the injected activity per gram of tissue mass (% IA/g). The data were analyzed for significance using a two-way ANOVA with Tukey’s multiple comparison post-tests. A p-value of <0.05 was considered statistically significant.

[8] = in vivo; details: female, athymic nude (CD-1 Foxn-1nu), mouse, iv, 1 nmol/mouse, total radioactivity
Method: as §1, §2

In the case of `C[C@@H](O)[C@@H]1NC(=O)[C@H](CCCCN)NC(=O)[C@@H](Cc2c[nH]c3ccccc23)NC(=O)[C@H](Cc2ccc(O)cc2)NC(=O)[C@@H](NC(=O)[C@@H](Cc2ccccc2)NC(=O)CN2CCN(CC(=O)O)CCN(CC(=O)O)CCN(CC(=O)O)CC2)CSSC[C@@H](C(=O)N[C@H](CO)[C@@H](C)O)NC1=O` [[^161Tb]Tb-DOTATOC] [metal not drawn], the “ALB (albumin)” value [1] is reported as 23 ± 2 g/L, the “ALP (alkaline phosphatase)” value [1] is reported as 76 ± 21 U/L and the “BUN (blood urea nitrogen)” value [1] is reported as 5.8 ± 1.0 mmol/L. For the same compound, the “CRE (plasma creatinine)” value [1] was <18 (n=6) µmol/L, the “TBIL (total bilirubin)” value [1] was < 3 µmol/L and 4 ± 1 µmol/L and the LogD [2] was -3.3 ± 0.2. The “Tu-to-adr (tumor-to-adrenals)” value ([3]; 0.040 nmol/mouse) was 24 ± 1, the Tu-to-blood ([3]; 0.040 nmol/mouse) was 187 ± 12 and the Tu-to-kidney ([3]; 0.040 nmol/mouse) was 1.8 ± 0.2. The Tu-to-liver ([3]; 0.040 nmol/mouse) was 73 ± 3 and 74 ± 3, the “Tu-to-adr (tumor-to-adrenals)” value ([3]; 0.20 nmol/mouse) was 34 ± 7 and the Tu-to-blood ([3]; 0.20 nmol/mouse) was 221 ± 56. The Tu-to-kidney ([3]; 0.20 nmol/mouse) was 1.5 ± 0.1, the Tu-to-liver ([3]; 0.20 nmol/mouse) was 76 ± 14 and the “Biodistribution: AR42J Tumor” value ([3]; 1.0 nmol/mouse) was 8.2 ± 0.2 % IA/g. For the same compound, the “Biodistribution: Adrenals” value ([3]; 1.0 nmol/mouse) was 0.25 ± 0.06 % IA/g, the “Biodistribution: Blood” value ([3]; 1.0 nmol/mouse) was no more than 0.10 % IA/g and the “Biodistribution: Femur” value ([3]; 1.0 nmol/mouse) was no more than 0.10 % IA/g. For the same compound, the “Biodistribution: Heart” value ([3]; 1.0 nmol/mouse) was no more than 0.10 % IA/g, the “Biodistribution: Intestines” value ([3]; 1.0 nmol/mouse) was 0.21 ± 0.13 % IA/g and the “Biodistribution: Kidneys” value ([3]; 1.0 nmol/mouse) was 9.9 ± 1.3 % IA/g. The “Biodistribution: Liver” value ([3]; 1.0 nmol/mouse) was 0.17 ± 0.01 % IA/g, the “Biodistribution: Lung” value ([3]; 1.0 nmol/mouse) was 0.27 ± 0.03 % IA/g and the “Biodistribution: Muscle” value ([3]; 1.0 nmol/mouse) was no more than 0.10 % IA/g. For the same compound, the “Biodistribution: Pancreas” value ([3]; 1.0 nmol/mouse) was 0.71 ± 0.07 % IA/g, the “Biodistribution: Spleen” value ([3]; 1.0 nmol/mouse) was 0.11 ± 0.02 % IA/g and the “Biodistribution: Stomach” value ([3]; 1.0 nmol/mouse) was 0.74 ± 0.38 % IA/g. For the same compound, the “uptake in whole-body scintigraphy” value [4] was “Pathological uptake was demonstrated in the bilobar liver”, the “Biodistribution: AR42J Tumor” value ([5]; 0.5 h p.i.) was 15 ± 2 % IA/g and the “Biodistribution: AR42J Tumor” value ([5]; 2 h p.i.) was 14 ± 1 % IA/g. The “Biodistribution: Adrenals” value ([5]; 2 h p.i.) was 0.43 ± 0.11 % IA/g, the “Biodistribution: Femur” value ([5]; 2 h p.i.) was 0.12 ± 0.03 % IA/g and the “Biodistribution: Heart” value ([5]; 2 h p.i.) was no more than 0.10 % IA/g. The “Biodistribution: Intestines” value ([5]; 2 h p.i.) was 0.24 ± 0.01 % IA/g, the “Biodistribution: Kidneys” value ([5]; 2 h p.i.) was 9.4 ± 0.4 % IA/g and the “Biodistribution: Liver” value ([5]; 2 h p.i.) was 0.19 ± 0.03 % IA/g. For the same compound, the “Biodistribution: Lung” value ([5]; 2 h p.i.) was 0.47 ± 0.05 % IA/g, the “Biodistribution: Muscle” value ([5]; 2 h p.i.) was no more than 0.10 % IA/g and the “Biodistribution: Pancreas” value ([5]; 2 h p.i.) was 1.5 ± 0.2 % IA/g. For the same compound, the “Biodistribution: Spleen” value ([5]; 2 h p.i.) was 0.18 ± 0.02 % IA/g, the Median survival ([6]; 2 x 10 MBq, 0.2 nmol) was 21 days and the tumor growth delay ([6]; 2 x 10 MBq, 0.2 nmol, Day 0 and 7) was 9.0 ± 5.5 days. For the same compound, the “Time frame of euthanasia” value ([6]; 2 x 10 MBq, 0.2 nmol, end of study = 49 days) was 20 to 26 days and the tumor doubling time ([6]; regrowth phase) was 3.4 ± 3.6 days.

With `CC(O)C1NC(=O)C(CCCCN)NC(=O)C(Cc2ccc(NC(N)=O)cc2)NC(=O)C(Cc2ccc(O)cc2)NC(=O)C(NC(=O)C(Cc2ccc(Cl)cc2)NC(=O)CN2CCN(CC(=O)O)CCN(CC(=O)O)CCN(CC(=O)O)CC2)CSSCC(C(=O)NC(Cc2ccc(O)cc2)C(N)=O)NC1=O` (centres unmarked) [metal not drawn] ({DOTA}-[Phe(4-Cl)]CY[X1]KTCY-NH2; disulfide 2-7; configuration not given here) the “ALB (albumin)” value [1] was 22 ± 1 g/L, the “ALP (alkaline phosphatase)” value [1] was 65 ± 15 U/L and the “BUN (blood urea nitrogen)” value [1] was 9.1 ± 1.5 mmol/L. For the same compound, the “CRE (plasma creatinine)” value [1] was <18 (n=5) 18 (n=1) µmol/L, the “TBIL (total bilirubin)” value [1] was <3 (n=5) 3 (n=1) µmol/L and the Tumor-to-liver [7] was 63 ± 18. The tissue uptake at 2 h ([8]; femur) was 0.2 ± 0.05 %ID/g, the tissue uptake at 2 h ([8]; kidneys) was 12 ± 2 %ID/g and the tissue uptake at 2 h ([8]; lung) was 1 ± 0.2 %ID/g. The tissue uptake at 24 h ([8]; spleen) was 0.13 ± 0.03 %ID/g, the “Biodistribution: Muscle” value ([5]; 2 h p.i.) was no more than 0.10 % IA/g and the “Biodistribution: Spleen” value ([5]; 2 h p.i.) was 0.41 ± 0.08 % IA/g.
